Tests used:
Experiment in all cases: cell-based or functional assay
[1] = molecular target: HIV-1 Env of isolate 92UG114 (subtype D) (HIV-1)
[2] = molecular target: envelope of aMLV pseudovirus (negative control)
[3] = molecular target: HIV-1 Env of isolate MGRM-F1-023 (subtype F) (HIV-1)
[4] = molecular target: HIV-1 Env of pseudovirus isolate MGRM-G-013 (subtype G) (HIV-1)
[5] = molecular target: HIV-1 Env of pseudovirus isolate MGRM-G-024 (subtype G) (HIV-1)
[6] = molecular target: HIV-1 Env of isolate MGRM-D-013 (subtype D) (HIV-1)
[7] = molecular target: HIV-1 Env of pseudovirus isolate MGRM-G-001 (subtype G) (HIV-1)
[8] = molecular target: HIV-1 Env of isolate MGRM-F1-014 (subtype F) (HIV-1)
[9] = molecular target: HIV-1 Env of isolate MGRM-D-004 (subtype D) (HIV-1)
[10] = molecular target: HIV-1 Env of isolate 98CN009 (subtype CRF07_BC) (HIV-1)
[11] = molecular target: HIV-1 Env of pseudovirus isolate MGRM-G-028 (subtype G) (HIV-1)
[12] = molecular target: HIV-1 Env of isolate MGRM-D-012 (subtype D) (HIV-1)
[13] = molecular target: HIV-1 Env of isolate MGRM-D-002 (subtype D) (HIV-1)
[14] = molecular target: HIV-1 Env of pseudovirus isolate MGRM-G-019 (subtype G) (HIV-1)
[15] = molecular target: HIV-1 Env of pseudovirus isolate MGRM-G-011 (subtype G) (HIV-1)
[16] = molecular target: HIV-1 Env of pseudovirus isolate MGRM-G-014 (subtype G) (HIV-1)
[17] = molecular target: HIV-1 Env of isolate MGRM-D-029 (subtype D) (HIV-1)
[18] = molecular target: HIV-1 Env of pseudovirus isolate MGRM-G-025 (subtype G) (HIV-1)
[19] = molecular target: HIV-1 Env of isolate MGRM-D-022 (subtype D) (HIV-1)
[20] = molecular target: HIV-1 Env of isolate MGRM-F1-022 (subtype F) (HIV-1)
[21] = molecular target: HIV-1 Env of isolate MGRM-F1-008 (subtype F) (HIV-1)
[22] = molecular target: HIV-1 Env of isolate MGRM-F1-013 (subtype F) (HIV-1)
[23] = molecular target: HIV-1 Env of isolate 92UG001 (subtype D) (HIV-1)
[24] = molecular target: HIV-1 Env of isolate MGRM-F1-006 (subtype F) (HIV-1)
[25] = molecular target: HIV-1 Env of isolate MGRM-D-024 (subtype D) (HIV-1)
[26] = molecular target: HIV-1 Env of isolate MGRM-F1-016 (subtype F) (HIV-1)
[27] = molecular target: HIV-1 Env of isolate MGRM-D-005 (subtype D) (HIV-1)
[28] = molecular target: HIV-1 Env of isolate MGRM-D-014 (subtype D) (HIV-1)
[29] = molecular target: HIV-1 Env of isolate MGRM-D-003 (subtype D) (HIV-1)
[30] = molecular target: HIV-1 Env of pseudovirus isolate MGRM-G-015 (subtype G) (HIV-1)
[31] = molecular target: HIV-1 Env of isolate MGRM-D-001 (subtype D) (HIV-1)
[32] = molecular target: HIV-1 Env of isolate MGRM-D-021 (subtype D) (HIV-1)
[33] = molecular target: HIV-1 Env of isolate MGRM-F1-015 (subtype F) (HIV-1)
[34] = molecular target: HIV-1 Env of pseudovirus isolate MGRM-G-027 (subtype G) (HIV-1)
[35] = molecular target: HIV-1 Env of pseudovirus isolate MGRM-G-016 (subtype G) (HIV-1)
[36] = molecular target: HIV-1 Env of isolate 98CN006 (subtype CRF08_BC) (HIV-1)
[37] = molecular target: HIV-1 Env of isolate MGRM-D-026 (subtype D) (HIV-1)
[38] = molecular target: HIV-1 Env of pseudovirus isolate MGRM-G-006 (subtype G) (HIV-1)
[39] = molecular target: HIV-1 Env of isolate MGRM-F1-020 (subtype F) (HIV-1)
[40] = molecular target: HIV-1 Env of isolate MGRM-D-018 (subtype D) (HIV-1)
[41] = molecular target: HIV-1 Env of isolate MGRM-F1-021 (subtype F) (HIV-1)
[42] = molecular target: HIV-1 Env of pseudovirus isolate MGRM-G-009 (subtype G) (HIV-1)
[43] = molecular target: HIV-1 Env of isolate MGRM-D-016 (subtype D) (HIV-1)
[44] = molecular target: HIV-1 Env of isolate MGRM-F1-012 (subtype F) (HIV-1)
[45] = molecular target: HIV-1 Env of isolate MGRM-F1-017 (subtype F) (HIV-1)
[46] = molecular target: HIV-1 Env of isolate MGRM-D-011 (subtype D) (HIV-1)
[47] = molecular target: HIV-1 Env of isolate MGRM-D-008 (subtype D) (HIV-1)
[48] = molecular target: HIV-1 Env of pseudovirus isolate MGRM-G-017 (subtype G) (HIV-1)
[49] = molecular target: HIV-1 Env of isolate MGRM-F1-004 (subtype F) (HIV-1)
[50] = molecular target: HIV-1 Env of isolate MGRM-F1-010 (subtype F) (HIV-1)
[51] = molecular target: HIV-1 Env of isolate 92UG005 (subtype D) (HIV-1)
[52] = molecular target: HIV-1 Env of isolate MGRM-F1-018 (subtype F) (HIV-1)
[53] = molecular target: HIV-1 Env of isolate 92UG046 (subtype D) (HIV-1)
[54] = molecular target: HIV-1 Env of isolate MGRM-D-028 (subtype D) (HIV-1)
[55] = molecular target: HIV-1 Env of pseudovirus isolate MGRM-G-004 (subtype G) (HIV-1)
[56] = molecular target: HIV-1 Env of isolate 92UG024 (subtype D) (HIV-1)
[57] = molecular target: HIV-1 Env of isolate MGRM-D-020 (subtype D) (HIV-1)
[58] = molecular target: HIV-1 Env of isolate MGRM-D-019 (subtype D) (HIV-1)

B1: PGT-135 (antibody, V domains shown)
VH: QLQMQESGPGLVKPSETLSLSCTVSGDSIRGGEWGDKDYHWGWVRHSAGKGLEWIGSIHWRGTTHYKESLRRRVSMSIDTSRNWFSLRLASVTAADTAVYFCARHRHHDVFMLVPIAGWFDVWGPGVQVTVSS
VL: EIVMTQSPDTLSVSPGETVTLSCRASQNINKNLAWYQYKPGQSPRLVIFETYSKIAAFPARFVASGSGTEFTLTINNMQSEDVAVYYCQQYEEWPRTFGQGTKVDIK
B1 was tested, and the IC50 (neutralization) [1] was 1.29 µg/mL, the IC50 [2] was greater than 50 µg/mL and the IC50 (neutralization) [3] was 0.088 µg/mL. For the same binder, the IC50 [4] was greater than 50 µg/mL, the IC50 [5] was 0.062 µg/mL and the IC50 (neutralization) [6] was greater than 50 µg/mL. It also gave an IC50 [7] of 0.393 µg/mL, an IC50 (neutralization) [8] greater than 50 µg/mL and an IC50 (neutralization) [9] greater than 50 µg/mL. The IC50 (neutralization) [10] was 0.071 µg/mL, the IC50 [11] was greater than 50 µg/mL and the IC50 (neutralization) [12] was greater than 50 µg/mL. The IC50 (neutralization) [13] was greater than 50 µg/mL, the IC50 [14] was 0.145 µg/mL and the IC50 [15] was greater than 50 µg/mL. The IC50 [16] was greater than 50 µg/mL, the IC50 (neutralization) [17] was 30.8 µg/mL and the IC50 [18] was 0.592 µg/mL. The IC50 (neutralization) [19] was greater than 50 µg/mL, the IC50 (neutralization) [20] was 0.964 µg/mL and the IC50 (neutralization) [21] was greater than 50 µg/mL. The IC50 (neutralization) [22] was 21.1 µg/mL, the IC50 (neutralization) [23] was greater than 50 µg/mL and the IC50 (neutralization) [24] was greater than 50 µg/mL. It also gave an IC50 (neutralization) [25] greater than 50 µg/mL, an IC50 (neutralization) [26] greater than 50 µg/mL and an IC50 (neutralization) [27] greater than 50 µg/mL. It also gave an IC50 (neutralization) [28] of 2.21 µg/mL, an IC50 (neutralization) [29] greater than 50 µg/mL and an IC50 [30] greater than 50 µg/mL. The IC50 (neutralization) [31] was greater than 50 µg/mL, the IC50 (neutralization) [32] was greater than 50 µg/mL and the IC50 (neutralization) [33] was 1.11 µg/mL. The IC50 [34] was 0.062 µg/mL, the IC50 [35] was greater than 50 µg/mL and the IC50 (neutralization) [36] was 0.429 µg/mL. It also gave an IC50 (neutralization) [37] greater than 50 µg/mL, an IC50 [38] greater than 50 µg/mL and an IC50 (neutralization) [39] of 0.168 µg/mL. The IC50 (neutralization) [40] was 0.039 µg/mL, the IC50 (neutralization) [41] was 0.065 µg/mL and the IC50 [42] was greater than 50 µg/mL. The IC50 (neutralization) [43] was greater than 50 µg/mL, the IC50 (neutralization) [44] was 0.01 µg/mL and the IC50 (neutralization) [45] was 7.79 µg/mL. The IC50 (neutralization) [46] was 23.5 µg/mL, the IC50 (neutralization) [47] was greater than 50 µg/mL and the IC50 [48] was 0.137 µg/mL. The IC50 (neutralization) [49] was 0.211 µg/mL, the IC50 (neutralization) [50] was greater than 50 µg/mL and the IC50 (neutralization) [51] was greater than 50 µg/mL. It also gave an IC50 (neutralization) [52] greater than 50 µg/mL, an IC50 (neutralization) [53] greater than 50 µg/mL and an IC50 (neutralization) [54] greater than 50 µg/mL. For the same binder, the IC50 [55] was greater than 50 µg/mL, the IC50 (neutralization) [56] was 0.01 µg/mL and the IC50 (neutralization) [57] was greater than 50 µg/mL. For the same binder, the IC50 (neutralization) [58] was greater than 50 µg/mL.

— US20160264649A1
